Measured values as given in paper PMC8927860, “Completing the family of human Eps15 homology domains: Solution structure of the internal Eps15 homology domain of γ‐synergin” (Protein Science : A Publication of the Protein Society, 2022).
“Also recorded” adds a separate entry of the source. Ends that are not written are not given here.

Key:
[1] = molecular target: T1, EH domain of γ‐synergin (EHγ, residues 279–388) (Homo sapiens, UniProt Q9UMZ2); experiment: Isothermal titration calorimetry of SCAMP1 fragments and peptides with EHγ; assay type: binding; details: ITC; for ∆H / ∆S / N (stoichiometry) / KD: 20 mM Tris, 100 mM NaCl, 2 mM CaCl2 pH 7.5, 20°C, one site binding model; for ∆H / ∆S / KD: n.b. = no binding; for N (stoichiometry) / KD: VP-ITC, 50–200 μM EHγ in cell, ligand 700–2000 μM
T1 construct: His-tag with TEV cleavage site (N, cleaved yes); made in house; host or cells: Escherichia coli BL21(DE3)
T1 sequence (Q9UMZ2 279-388): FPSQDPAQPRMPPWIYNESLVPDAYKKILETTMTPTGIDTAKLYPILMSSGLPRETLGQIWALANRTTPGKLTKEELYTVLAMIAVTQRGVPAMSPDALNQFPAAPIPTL
Experimental: ITC measurements were performed on a VP‐ITC instruments (GE Healthcare, Chalfont St. Giles, UK). The calorimetric cell (with a total cell volume of 1,400 μl) contained 50–200 μM EHγ in 20 mM Tris, 100 mM NaCl, 2 mM CaCl2 pH 7.5. SCAMP1 fragments and peptides A, B, C at 700–2000 μM were titrated into the cell at 20°C. The heat generated after each ligand injection was obtained by integration of the calorimetric signal. Resulting binding isotherms were analyzed according to an one site binding model using the Origin software (OriginLab Corp., Northampton, MA, USA).

[2] = molecular target: T1, EH domain of γ‐synergin (EHγ, residues 279–388); experiment: Analytical size exclusion chromatography of EHγ–SCAMP1″ complex; assay type: binding; details: complex compared with isolated EHγ and SCAMP1″; 100 μM EHγ and/or 100 μM SCAMP 1–52, Superdex 200 5/150 GL, 20 mM Tris pH 7.5, 100 mM NaCl, 2 mM CaCl2, 4°C
Experimental: The quality and oligomeric state of the EHγ construct was assessed on an analytical gel filtration column (Superdex 75 5/150 GL, GE Healthcare). To guarantee reproducible and reliable gel filtration runs, an ÄKTAmicro™ (GE Healthcare) was coupled to an auto sampler, which automatically injected with high‐precision 25 μl of protein sample.[36] Analytical gel filtration runs were performed in duplicates in the cold room at a flow rate of 0.2 ml/min in gel filtration buffer (20 mM Tris pH 7.5, 100 mM NaCl, 2 mM CaCl2). The used EHγ construct was injected spanning a concentration range of 10–1,000 μM. The column has been calibrated with protein standards ranging from 6.5 to 75 kDa. Interactions between EHγ and the SCAMP 1–52 fragment were also probed using this analytical gel filtration setup; the proteins alone or the potential complex (at concentrations of 100 μM EHγ and/or 100 μM SCAMP 1–52) were applied to a Superdex™ 200 5/150 GL analytical gel filtration column and analyzed. Analytical gel filtration runs were performed at 4°C at a flow rate of 0.2 ml/min in the gel filtration buffer.

[3] = molecular target: T2, EH domain of human γ-synergin, longest construct (residues 279–388) (human, UniProt Q9UMZ2 279-388); experiment: ITC
T2 chain: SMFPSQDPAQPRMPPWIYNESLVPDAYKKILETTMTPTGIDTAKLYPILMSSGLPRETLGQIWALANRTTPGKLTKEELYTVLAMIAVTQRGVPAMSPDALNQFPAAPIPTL

[4] = molecular target: T3, EH domain of human γ-synergin, longest construct (residues 279–388) (human, UniProt Q9UMZ2 279-388); experiment: NMR titration; unlabelled peptide added stepwise to 15N-labelled EHγ, 1H-15N HSQC, up to n = 2 (Pep A, C) and n = 3.2 (Pep B); 20 mM Tris pH 7.5, 100 mM NaCl, 2 mM CaCl2, 10% D2O, 298 K; joint fit of I324, L325, W339 to a one site binding model; details: both partners purified
T3 construct: two additional residues (Serine-Methionine) left at the N-terminus by the vector pNIC28-Bsa4 after TEV cleavage of the tag; γ-synergin, human, residues 279-388 (EH domain with N- and C-terminal structured extensions); also called EHγ; EHγ domain; source: E. coli BL21(DE3), purified (Ni-IMAC, TEV cleavage, SEC on Superdex 75); 15N-labelled in M9 medium for NMR; not shown: His tag, N-terminal, …
T3 sequence: T2 chain

[5] = molecular target: T3, EH domain of human γ-synergin, longest …; experiment: ITC; EHγ 50–200 μM in the cell, SCAMP1 fragments and peptides A, B, C at 700–2000 μM titrated in; 20 mM Tris, 100 mM NaCl, 2 mM CaCl2 pH 7.5, 20°C; one site binding model; details: both partners purified

ADPDLNNPFKDPSVTY-NH2 [Peptide B]
∆H [1]: -12.0 ± 1.5 kcal/mol
∆S [1]: -23.3 cal/mol/deg
N (stoichiometry) [1]: 1.1 ± 0.2

SDFDSNPFADPDLNY-NH2 [Peptide A]
∆H [1]: -21.1 ± 2.4 kcal/mol
∆S [1]: -55.2 cal/mol/deg
N (stoichiometry) [1]: 1.2 ± 0.1

SCAMP1″: NPF repeat rich fragment of SCAMP1 possessing three NPF-motifs (residues 1–52) (MSDFDSNPFADPDLNNPFKDPSVTQVTRNVPPGLDEYNPFSDSRTPPPGGVK; UniProt O15126 1-52, looked up, fragment)
complex formation by SEC (elution) [2]: lower retention volume
N (stoichiometry) [1]: 0.33 ± 0.01
enthalpic/entropic contribution to binding (in words) ([1]; SCAMP1″ (three NPF-motifs) compared to sum of / individual peptides A, B, C): no enthalpic gain; also recorded: largely reduced entropic penalty

GLDEYNPFSDSRT-NH2 [Peptide C]
∆H [1]: -22.9 ± 2.7 kcal/mol
∆S [1]: -59.8 cal/mol/deg
N (stoichiometry) [1]: 1.0 ± 0.1

GLDEYNPFSDSRT-NH2 [peptide C, SCAMP1 derived peptide with a single NPF-repeat]
Kd [3]: 90 µM
Kd [4]: 30 ± 20 µM

B1: SCAMP1′: coiled coil domain of N-terminal SCAMP1, devoid of NPF-repeats (residues 65–130) (protein, UniProt O15126 65-130, looked up, fragment)
chain: KPTEEHPAYTQIAKEHALAQAELLKRQEELERKAAELDRREREMQNLSQHGRKNNWPPLPSNFPVG
N (stoichiometry) [1]: n.b.
KD [1]: n.b.

B2: SCAMP1″, NPF repeat rich N-terminal fragment of secretory carrier membrane protein 1 (residues 1–52) (domain or fragment, human (hORFeome collection))
chain: SMMSDFDSNPFADPDLNNPFKDPSVTQVTRNVPPGLDEYNPFSDSRTPPPGGVK
notes: two additional residues (Serine-Methionine) left by the vector pNIC28-Bsa4 after TEV cleavage (same cloning procedure as for EHγ); secretory carrier membrane protein 1 (SCAMP1), residues 1-52, with three NPF repeats; gene from the hORFeome collection; also called SCAMP 1–52 fragment; NPF-repeats from the N-terminal domain of SCAMP1; source: E. coli BL21(DE3), purified (Ni-IMAC, TEV cleavage, …)
binding result [5]: binds
Kd [3]: 9.9 µM

ADPDLNNPFKDPSVTY-NH2 [peptide B, SCAMP1 derived peptide with a single NPF-repeat]
Kd [3]: 140 µM
Kd [4]: 120 ± 30 µM

SDFDSNPFADPDLNY-NH2 [peptide A, SCAMP1 derived peptide with a single NPF-repeat]
Kd [3]: 250 µM
Kd [4]: 110 ± 10 µM

B3: SCAMP1 (protein)
chain: MSDFDSNPFADPDLNNPFKDPSVTQVTRNVPPGLDEYNPFSDSRTPPPGGVKMPNVPNTQPAIMKPTEEHPAYTQIAKEHALAQAELLKRQEELERKAAELDRREREMQNLSQHGRKNNWPPLPSNFPVG
modifications: N-terminal cytosolic SCAMP1 construct, residues 1-130 (NPF repeats plus coiled coil, no TM helices); Ser-Met left at the N-terminus after TEV cleavage is omitted; human inferred from the hORFeome source
Kd [3]: 9 µM

B4: SCAMP1: N-terminal SCAMP1 construct devoid of transmembrane helices, comprising NPF repeat rich motifs and coiled coil (residues 1–130) (protein, UniProt O15126 1-130, looked up, fragment)
chain: B3 chain
∆H [1]: -7.5 ± 1.1 kcal/mol
∆S [1]: -2.3 cal/mol/deg
∆H ([1]; listed as SCAMP1’): n.b.
∆S ([1]; listed as SCAMP1’): n.b.
∆H ([1]; listed as SCAMP1’’): -41.3 ± 1.3 kcal/mol
∆S ([1]; listed as SCAMP1’’): -118.0 cal/mol/deg
N (stoichiometry) [1]: 0.38 ± 0.04
N (stoichiometry) ([1]; listed as SCAMP1’): n.b.
N (stoichiometry) ([1]; listed as SCAMP1’’): 0.33 ± 0.01
KD ([1]; listed as SCAMP1’): n.b.
KD ([1]; listed as SCAMP1’’): 9.9 ± 0.4 µM
